The source of these data is publication PMC8920935.

The target in assay [1] is Escherichia coli YidC R366E/F433S, cysteine-less, with a cysteine introduced at position 405 (Escherichia coli) (UniProt P25714). Description: FRET or BRET; labelled Pf3 coat added in steps (60, 60, 150, 150, 150, 300, 300 nM; final 1.17 uM; 1 min each) to DOPC proteoliposomes with 300 nM labelled YidC; excitation 500 nm, acceptor signal at 669 nm; room temperature. (Bioluminescence resonance energy transfer reports proximity on the nanometre scale.)

Assay [2] concerns the target Escherichia coli YidC, cysteine-less, with a cysteine introduced at position 405 (WT in the FRET assay) (Escherichia coli) (UniProt P25714). The description is as above.

What is called Kd is the constant that tells how readily two partners part at equilibrium. The low end stands for tighter binding, the high end for weaker binding. For “Pf3 coat protein, fluorescently labelled at residue 48 (from UniProt P03623 1-44) (natural protein)”, the Kd was 349 nM in assay [1] and 241 nM in assay [2].
